The results in this text go back to IntAct's records for PubMed 35512704.

Sequences and labels used below:
B1: Speckle-type POZ protein (Homo sapiens), O43791 (parent)
chain: MSRVPSPPPPAEMSSGPVAESWCYTQIKVVKFSYMWTINNFSFCREEMGEVIKSSTFSSGANDKLKWCLRVNPKGLDEESKDYLSLYLLLVSCPKSEVRAKFKFSILNAKGEETKAMESQRAYRFVQGKDWGFKKFIRRDFLLDEANGLLPDDKLTLFCEVSVVQDSVNISGQNTMNMVKVPECRLADELGGLWENSRFTDCCLCVAGQEFQAHKAILAARSPVFSAMFEHEMEESKKNRVEINDVEPEVFKEMMCFIYTGKAPNLDKMADDLLAAADKYALERLKVMCEDALCSNLSVENAAEILILADLHSADQLKTQAVDFINYHASDVLETSGWKSMVVSHPHLVAEAYRSLASAQCPFLGPPRKRLKQS
partner: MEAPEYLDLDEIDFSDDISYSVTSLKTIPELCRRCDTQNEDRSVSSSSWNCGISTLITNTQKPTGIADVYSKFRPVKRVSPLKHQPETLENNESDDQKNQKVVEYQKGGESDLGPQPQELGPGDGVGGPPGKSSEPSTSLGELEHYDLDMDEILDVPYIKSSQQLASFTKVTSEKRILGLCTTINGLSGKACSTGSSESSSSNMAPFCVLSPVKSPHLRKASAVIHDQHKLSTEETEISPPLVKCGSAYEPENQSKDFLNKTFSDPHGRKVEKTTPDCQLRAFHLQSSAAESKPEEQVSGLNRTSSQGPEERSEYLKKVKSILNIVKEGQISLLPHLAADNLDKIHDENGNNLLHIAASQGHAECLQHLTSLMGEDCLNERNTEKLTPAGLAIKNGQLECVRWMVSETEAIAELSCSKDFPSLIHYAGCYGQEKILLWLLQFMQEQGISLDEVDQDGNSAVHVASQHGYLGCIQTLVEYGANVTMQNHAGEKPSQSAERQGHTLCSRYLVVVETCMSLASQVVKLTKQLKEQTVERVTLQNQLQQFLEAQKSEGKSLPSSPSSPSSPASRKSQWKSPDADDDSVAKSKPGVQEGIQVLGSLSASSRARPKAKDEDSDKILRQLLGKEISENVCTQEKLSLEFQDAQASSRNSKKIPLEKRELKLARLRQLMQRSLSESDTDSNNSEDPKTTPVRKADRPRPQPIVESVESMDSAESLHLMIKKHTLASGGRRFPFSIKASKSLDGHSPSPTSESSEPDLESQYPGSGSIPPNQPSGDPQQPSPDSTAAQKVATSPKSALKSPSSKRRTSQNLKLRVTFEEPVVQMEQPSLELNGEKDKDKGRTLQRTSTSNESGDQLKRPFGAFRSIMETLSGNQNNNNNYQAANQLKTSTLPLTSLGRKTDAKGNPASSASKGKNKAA
B2: Speckle-type POZ protein (Homo sapiens), O43791 (parent)
chain: B1 chain
partner: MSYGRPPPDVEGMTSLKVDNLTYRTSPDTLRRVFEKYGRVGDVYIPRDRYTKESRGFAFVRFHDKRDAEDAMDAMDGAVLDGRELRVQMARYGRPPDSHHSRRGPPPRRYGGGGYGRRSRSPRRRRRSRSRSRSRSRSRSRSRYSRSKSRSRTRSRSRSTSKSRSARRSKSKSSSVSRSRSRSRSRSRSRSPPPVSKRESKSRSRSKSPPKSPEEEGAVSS

The first assay covers variants of B1. To be noted: with sncap_human SNCAIP.
Consider MSRVPSPPPPAEMSSGPVAESWCYTQIKVVKFSYMWTINNFSFCREEMGEVIKSSTFSSGANDKLKWCLRVNPKGLDEESKDYLSLYLLLVSCPKSEVRAKCKFSILNAKGEETKAMESQRAYRFVQGKDWGFKKFIRRDFLLDEANGLLPDDKLTLFCEVSVVQDSVNISGQNTMNMVKVPECRLADELGGLWENSRFTDCCLCVAGQEFQAHKAILAARSPVFSAMFEHEMEESKKNRVEINDVEPEVFKEMMCFIYTGKAPNLDKMADDLLAAADKYALERLKVMCEDALCSNLSVENAAEILILADLHSADQLKTQAVDFINYHASDVLETSGWKSMVVSHPHLVAEAYRSLASAQCPFLGPPRKRLKQS [F102C], for which the “effect of a mutation on the interaction” value is “with no effect”.

A further assay covers variants of B1. To be noted: with sncap_human SNCAIP. This is another data set of the same source.
Consider MSRVPSPPPPAEMSSGPVAESWCYTQIKVVKFSYMWTINNFSFCREEMGEVIKSSTFSSGANDKLKWCLRVNPKGLDEESKDYLSLYLLLVSCPKSEVRAKFKFSILNAKGEETKAMESQRAYRFVQGKDWGVKKFIRRDFLLDEANGLLPDDKLTLFCEVSVVQDSVNISGQNTMNMVKVPECRLADELGGLWENSRFTDCCLCVAGQEFQAHKAILAARSPVFSAMFEHEMEESKKNRVEINDVEPEVFKEMMCFIYTGKAPNLDKMADDLLAAADKYALERLKVMCEDALCSNLSVENAAEILILADLHSADQLKTQAVDFINYHASDVLETSGWKSMVVSHPHLVAEAYRSLASAQCPFLGPPRKRLKQS [F133V], for which the “effect of a mutation on the interaction” value is recorded as “with no effect”.

Another assay covers variants of B1. To be noted: with sncap_human SNCAIP. The source holds these as a separate data set.
For MSRVPSPPPPAEMSSGPVAESWCYTQIKVVKFSYMWTINNFSFCREEMGEVIKSSTFSSGANDKLKWCLRVNPKGLDEESKDYLSLYLLLVSCPKSEVRAKFKFSILNAKGEETKAMESQRAYRFVQGKDWGLKKFIRRDFLLDEANGLLPDDKLTLFCEVSVVQDSVNISGQNTMNMVKVPECRLADELGGLWENSRFTDCCLCVAGQEFQAHKAILAARSPVFSAMFEHEMEESKKNRVEINDVEPEVFKEMMCFIYTGKAPNLDKMADDLLAAADKYALERLKVMCEDALCSNLSVENAAEILILADLHSADQLKTQAVDFINYHASDVLETSGWKSMVVSHPHLVAEAYRSLASAQCPFLGPPRKRLKQS [F133L], the “effect of a mutation on the interaction” value is “with no effect”.

The next assay covers variants of B1. Particulars: with sncap_human SNCAIP. The source holds these as a separate data set.
Consider MSRVPSPPPPAEMSSGPVAESWCYTQIKVVKFSYMWTINNFSFCREEMGEVIKSSTFSSGANDKLKWCLRVNPKGLDEESKDYLSLCLLLVSCPKSEVRAKFKFSILNAKGEETKAMESQRAYRFVQGKDWGFKKFIRRDFLLDEANGLLPDDKLTLFCEVSVVQDSVNISGQNTMNMVKVPECRLADELGGLWENSRFTDCCLCVAGQEFQAHKAILAARSPVFSAMFEHEMEESKKNRVEINDVEPEVFKEMMCFIYTGKAPNLDKMADDLLAAADKYALERLKVMCEDALCSNLSVENAAEILILADLHSADQLKTQAVDFINYHASDVLETSGWKSMVVSHPHLVAEAYRSLASAQCPFLGPPRKRLKQS [Y87C], for which the “effect of a mutation on the interaction” value was “with no effect”.

The variants in the next assay derive from B2. To be noted: with srsf2_human SRSF2, Q01130.
Turning to MSRVPSPPPPAEMSSGPVAESWCYTQIKVVKFSYMWTINNFSFCREEMGEVIKSSTFSSGANDKLKWCLRVNPKGLDEESKDYLSLYLLLVSCPKSEVRAKFKFSILNAKGEETKAMESQRAYRFVQGKDWGLKKFIRRDFLLDEANGLLPDDKLTLFCEVSVVQDSVNISGQNTMNMVKVPECRLADELGGLWENSRFTDCCLCVAGQEFQAHKAILAARSPVFSAMFEHEMEESKKNRVEINDVEPEVFKEMMCFIYTGKAPNLDKMADDLLAAADKYALERLKVMCEDALCSNLSVENAAEILILADLHSADQLKTQAVDFINYHASDVLETSGWKSMVVSHPHLVAEAYRSLASAQCPFLGPPRKRLKQS [F133L], the “effect of a mutation on the interaction” value was “with no effect”.

Variants of B2 are the subject of another assay. To be noted: with srsf2_human SRSF2, Q01130. The source holds these as a separate data set.
With MSRVPSPPPPAEMSSGPVAESWCYTQIKVVKFSYMWTINNFSFCREEMGEVIKSSTFSSGANDKLKWCLRVNPKGLDEESKDYLSLYLLLVSCPKSEVRAKFKFSILNAKGEETKAMESQRAYRFVQGKDWGVKKFIRRDFLLDEANGLLPDDKLTLFCEVSVVQDSVNISGQNTMNMVKVPECRLADELGGLWENSRFTDCCLCVAGQEFQAHKAILAARSPVFSAMFEHEMEESKKNRVEINDVEPEVFKEMMCFIYTGKAPNLDKMADDLLAAADKYALERLKVMCEDALCSNLSVENAAEILILADLHSADQLKTQAVDFINYHASDVLETSGWKSMVVSHPHLVAEAYRSLASAQCPFLGPPRKRLKQS [F133V], the “effect of a mutation on the interaction” value was “with no effect”.

Variants of B2 are the subject of a further assay. To be noted: with srsf2_human SRSF2, Q01130. This is another data set of the same source.
Take MSRVPSPPPPAEMSSGPVAESWCYTQIKVVKFSYMWTINNFSFCREEMGEVIKSSTFSSGANDKLKWCLRVNPKGLDEESKDYLSLCLLLVSCPKSEVRAKFKFSILNAKGEETKAMESQRAYRFVQGKDWGFKKFIRRDFLLDEANGLLPDDKLTLFCEVSVVQDSVNISGQNTMNMVKVPECRLADELGGLWENSRFTDCCLCVAGQEFQAHKAILAARSPVFSAMFEHEMEESKKNRVEINDVEPEVFKEMMCFIYTGKAPNLDKMADDLLAAADKYALERLKVMCEDALCSNLSVENAAEILILADLHSADQLKTQAVDFINYHASDVLETSGWKSMVVSHPHLVAEAYRSLASAQCPFLGPPRKRLKQS [Y87C]: the “effect of a mutation on the interaction” value is “with no effect”.

Variants of B2 are the subject of another assay. Particulars: with srsf2_human SRSF2, Q01130. This is another data set of the same source.
For the variant MSRVPSPPPPAEMSSGPVAESWCYTQIKVVKFSYMWTINNFSFCREEMGEVIKSSTFSSGANDKLKWCLRVNPKGLDEESKDYLSLYLLLVSCPKSEVRAKCKFSILNAKGEETKAMESQRAYRFVQGKDWGFKKFIRRDFLLDEANGLLPDDKLTLFCEVSVVQDSVNISGQNTMNMVKVPECRLADELGGLWENSRFTDCCLCVAGQEFQAHKAILAARSPVFSAMFEHEMEESKKNRVEINDVEPEVFKEMMCFIYTGKAPNLDKMADDLLAAADKYALERLKVMCEDALCSNLSVENAAEILILADLHSADQLKTQAVDFINYHASDVLETSGWKSMVVSHPHLVAEAYRSLASAQCPFLGPPRKRLKQS [F102C], the “effect of a mutation on the interaction” value is “with no effect”.
